These are literature values, as cited in paper PMC9265785.

In this data set the target is Pex5 (Saccharomyces cerevisiae) (UniProt P35056).
UniProt P35056, sequence (P35056 whole entry): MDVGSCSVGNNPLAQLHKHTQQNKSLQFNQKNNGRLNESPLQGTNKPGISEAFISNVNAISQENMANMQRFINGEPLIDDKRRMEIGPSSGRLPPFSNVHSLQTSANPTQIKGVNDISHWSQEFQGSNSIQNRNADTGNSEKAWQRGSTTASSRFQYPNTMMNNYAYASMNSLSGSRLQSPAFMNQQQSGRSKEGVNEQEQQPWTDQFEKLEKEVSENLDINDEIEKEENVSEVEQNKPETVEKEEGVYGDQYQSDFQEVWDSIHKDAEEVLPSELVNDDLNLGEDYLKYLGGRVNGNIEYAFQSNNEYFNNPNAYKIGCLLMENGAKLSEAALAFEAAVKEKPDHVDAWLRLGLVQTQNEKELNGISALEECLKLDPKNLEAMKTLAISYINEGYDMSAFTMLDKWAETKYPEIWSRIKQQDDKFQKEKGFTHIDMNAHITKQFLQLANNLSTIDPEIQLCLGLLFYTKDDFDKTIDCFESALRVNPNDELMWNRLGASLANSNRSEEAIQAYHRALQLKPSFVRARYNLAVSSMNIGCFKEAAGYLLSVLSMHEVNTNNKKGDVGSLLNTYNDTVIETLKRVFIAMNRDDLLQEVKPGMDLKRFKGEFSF

Take Pex1 (from UniProt P24004): the dissociation constant (Kd) was 1000 nM.

Broadly, the Kd is a measure of binding affinity in units of concentration.
